± gives the standard deviation.
Assay: protein stability index of a GFP-peptide fusion (GPS, HEK-293T) (PSI 1-6); higher = more stable
[1] = treatment: DMSO, c terminus: native
[2] = treatment: MLN4924 1 uM, 8 h, c terminus: native
[3] = treatment: DMSO, c terminus: a fixed tail appended
[4] = treatment: MLN4924 1 uM, 8 h, c terminus: a fixed tail appended
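Also: 24-mer peptide tiles fused after GFP, lentivirally expressed, FACS-sorted into six equal bins by GFP/DsRed ratio, decoded by Illumina sequencing, PSI is the read-weighted mean bin number.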

Row | Sequence | protein stability index [1] | protein stability index [2] | protein stability index [3] | protein stability index [4]
1 | GVKLEGKVPMHKLFLEMLEAMMD [ESRRA] | 2.58 ± 0.74 | 2.66 ± 0.69 | – | –
2 | TVVEEPVDITPYLDQLDESLRDKV [INTS3] | – | – | 5.12 ± 0.16 | 5.03 ± 0.33
3 | SPSESSETVLALVNCISPLKYFSD [DENND6A] | – | – | 2.78 ± 0.3 | 2.8 ± 0.35
4 | YVFYLAVGNYRLKEYEKALKYVRG [FIS1] | – | – | 2.79 ± 0.36 | 2.39 ± 0.58
5 | AMFPETLDEGMQIPSTQFDAAHPT [CTNNB1] | – | – | 4.5 ± 0.091 | 4.49 ± 0.28
6 | NLKNDGRQVEKRRNSGPVVEKLKQ [MMP1] | – | – | 4.58 ± 0.24 | 4.41 ± 0.49
7 | ARQHALYIWEKSIGNLVKILHGTR [RBBP5] | – | – | 2.26 ± 0.36 | 2.5 ± 0.41
8 | DQEPLLSIDLGTAHSAAVTASGDC [NEK8] | – | – | 5.07 ± 0.32 | 5.17 ± 0.26
9 | IRVQGREFRAHRAVLAASSPYFHD [ZBTB22] | – | – | 2.55 ± 0.21 | 2.41 ± 0.16
10 | NFCHIHNCIHRDIKPENILITKQG [CDKL4] | – | – | 2.53 ± 0.067 | 2.74 ± 0.43
11 | ESKLLRDLSAANEKNLLLQNQVDE [LRRC45] | – | – | 5.37 ± 0.2 | 5.15 ± 0.34
12 | AAGKAEVVLGNIIKKKGWRRSSLV [KCNAB2] | – | – | 2.87 ± 0.24 | 2.96 ± 0.31
13 | ANFSLGSINQRLNKRERSKLKNLR [RNF180] | – | – | 2.91 ± 0.35 | 3.28 ± 0.43
14 | ARLASPLPREEEIVFPEKLNGSVL [ADAMTS4] | – | – | 4.01 ± 0.42 | 4.16 ± 0.15
15 | QLHIFNTLRSHLIDKGMLTSTTED [CDS2] | – | – | 2.93 ± 0.2 | 3.09 ± 0.26
16 | LRALGELLRRDLGVGTSMEGASPL [FANCE] | – | – | 2.92 ± 0.32 | 2.91 ± 0.43
17 | AAGGVPGGGSNNGKTPVCHQCHKV [PDLIM7] | – | – | 3.32 ± 0.62 | 3.85 ± 0.56
18 | TETREEDVTDEHGEREPFAETDEH [FAM9B] | – | – | 5.69 ± 0.061 | 5.63 ± 0.26
19 | KWTACSRSCGGGVTSQERHCLQQR [ADAMTSL2] | – | – | 2.75 ± 0.51 | 3.37 ± 0.59
20 | ESALIALDSEKPKKLRFHPKQLYF [EHMT1] | – | – | 2.38 ± 0.48 | 2.54 ± 0.19
21 | SLSSTATVLLVLEDEDPEEMPKSS [PCDHGC5] | – | – | 4.24 ± 0.12 | 4.08 ± 0.32
22 | RAGGWVSGEEFYMLTRRVLQLETV [PKD2L1] | – | – | 1.98 ± 0.14 | 2.5 ± 0.35

Row | Sequence | protein stability index [1] | protein stability index [2] | protein stability index [3] | protein stability index [4]
23 | SKKFKNCFQSCLCCCCYQSKSLMT [EDNRA] | – | – | 2.78 ± 0.1 | 2.84 ± 0.15
24 | LPGPTRPVLGRRAVGGRLRLVPGG [HAGHL] | – | – | 3.53 ± 0.41 | 3.67 ± 0.23
25 | FGGAAAVAILAVAIGVALALRKK [BCL2L13] | 2.99 ± 0.2 | 2.81 ± 0.21 | – | –
26 | LAGQKDELQLSDLLKQGYNKTLLR [PKD2L1] | – | – | 3.24 ± 0.23 | 3.39 ± 0.4
27 | VWSCEGCKAFFKRSIQGHNDYICP [ESR2] | – | – | 2.32 ± 0.16 | 2.15 ± 0.11
28 | RDVKKTGFVFGTTLIMLLSLAAFS [RTN3] | – | – | 3.03 ± 0.43 | 3.19 ± 0.39
29 | EVQAVHKNTTYDLIANIVHDGKPS [USP39] | – | – | 3.69 ± 0.17 | 3.87 ± 0.32
30 | LTINPAKRITAHEALKHPWVCQRS [CAMK2B] | – | – | 2.55 ± 0.29 | 2.95 ± 0.16
31 | VKVPTTLAEYCVKTKAPAPDEGSD [CDC34] | – | – | 5.07 ± 0.43 | 4.97 ± 0.12
32 | IKVTSATSVNLGILTADLYSLFVG [SLC35F2] | – | – | 3.07 ± 0.36 | 2.92 ± 0.42
33 | ISHEEQKSVRLARELESREAELRR [CHCHD6] | – | – | 5 ± 0.3 | 5.14 ± 0.37
34 | ALIETSYVKVLHHMVKISGGPRIS [MAGEA6] | – | – | 2.93 ± 0.41 | 2.88 ± 0.51
35 | SDTESTDLPSSTPVANSGTKPKTT [DLC1] | – | – | 5.47 ± 0.26 | 5.49 ± 0.22
36 | LHVWQITWAMRQRGTHAVVGVATA [SPSB1] | – | – | 2.58 ± 0.31 | 2.51 ± 0.64
37 | KVLRKAGLSAGYVDAGAEPGRSRM [LPCAT4] | – | – | 3.6 ± 0.31 | 3.73 ± 0.25
38 | SQQLQLIDEQDSYIQSRADTMQNI [STX5] | – | – | 4.59 ± 0.21 | 4.74 ± 0.26
39 | ATDMISIFEPPVRNSGIIGGKYLG [EFHC1] | – | – | 2.92 ± 0.25 | 3.16 ± 0.21
40 | HKSHRGMTPAEAEMHFLENAKKLS [EPB41L3] | – | – | 4.38 ± 0.21 | 4.25 ± 0.47
41 | SLGELCHPVPLSFEPVKSFFKGLV [TRIM14] | – | – | 2.47 ± 0.7 | 1.89 ± 0.17
42 | RHDGYATNDGNHPSCQETRDYAPP [RBMY1A1] | – | – | 5 ± 0.31 | 4.93 ± 0.084
43 | TVSTMYYLWMCSTLALLLNFLACL [SCAMP3] | – | – | 3.13 ± 0.22 | 3.03 ± 0.63
44 | LRDWEDLQQDFQNIQETHRLYRLK [TMEM120A] | – | – | 3.38 ± 0.28 | 3.49 ± 0.4

Row | Sequence | protein stability index [1] | protein stability index [2] | protein stability index [3] | protein stability index [4]
45 | RGYPPPRDSYSSSSRGAPRGGGRG [RBMX] | – | – | 5.12 ± 0.36 | 5.3 ± 0.23
46 | RLRLQRTGGLGGERERQPCGDGNT [SOAT2] | – | – | 4.59 ± 0.099 | 4.49 ± 0.14
47 | RSSSESKLPSSGSGKRLSGVSSVD [RIPK4] | – | – | 5.03 ± 0.19 | 5.07 ± 0.26
48 | LRDGAVPLPESRREIEELLAEAKY [KCTD10] | – | – | 4.5 ± 0.25 | 4.66 ± 0.28
49 | SQNSFLVQEVMEEEWNALQSVENC [RPAIN] | – | – | 4.53 ± 0.29 | 4.52 ± 0.32
50 | GRLEGLIQPDDLINQLTFIMDANQ [FAF2] | – | – | 2.8 ± 0.2 | 2.77 ± 0.5
51 | PRIIKAAPSCAIMISTYEFGKSFF [SLC25A39] | – | – | 2.56 ± 0.49 | 2.28 ± 0.32
52 | YIEMQTDPANCDYVIVSGAQRKEE [YJU2B] | – | – | 4.2 ± 0.2 | 4.57 ± 0.36
53 | KHSNKKVMRTKSSEKAANDDHSVR [CPXM2] | – | – | 5.13 ± 0.29 | 5.2 ± 0.22
54 | TIKSLSAELLKANEIIKKLQGDLK [SASS6] | – | – | 2.16 ± 0.48 | 2.37 ± 0.36
55 | PHIYGARIKGVEVFCPLDPPPPYE [FAM189A2] | – | – | 2.96 ± 0.17 | 3.04 ± 0.19
56 | ERLRLEQQKQQIMAALNSQTAVQF [ACBD3] | – | – | 3.36 ± 0.46 | 3.42 ± 0.28
57 | TGYLSTMVGLILGPFGINHGIELH [PCMTD1] | – | – | 3.29 ± 0.44 | 3.35 ± 0.25
58 | APCRSAQASVSCALEALEPFWEVL [HDAC6] | – | – | 3.32 ± 0.59 | 2.69 ± 0.82
59 | DSSNPYPNFNFNISHQGDYAVLAA [AASDHPPT] | – | – | 3.24 ± 0.36 | 3.42 ± 0.41
60 | VELLLARKISVNAKDEDQWTALHF [RIPK4] | – | – | 2.91 ± 0.82 | 1.83 ± 0.4
61 | LTYENVERWLKELRDHADSNIVIM [RAB11A] | – | – | 2.21 ± 0.34 | 2.75 ± 0.3
62 | CSPALKRSHSDSLDHDIFQLIDPD [CDC25A] | – | – | 3.76 ± 0.34 | 3.72 ± 0.41
63 | FSTDAFSSPPQGASPVPESSLTAD [SNAP91] | – | – | 3.65 ± 0.57 | 4.25 ± 0.43
64 | DLLSCSNFAVQHRYLFEEDNLLRS [MATN2] | – | – | 2.42 ± 0.18 | 2.43 ± 0.47
65 | PRGRRISVICRSLPEGMGPGESGQ [ALKBH7] | – | – | 3.69 ± 0.11 | 3.95 ± 0.37

Reference: the supplement of paper PMC10567573
